Laboratory results taken from patent US20250076311A1 (Chugai, published 2025).

T1: cynomolgus monkey FcγRIIIaS extracellular domain with C-terminal His-tag (cynomolgus monkey, UniProt Q8SPW2 21-206 at identity 1.00))
T1 construct: also called cyno FcgRIIIaS; cynoFcγRIIIaS
T1 chain: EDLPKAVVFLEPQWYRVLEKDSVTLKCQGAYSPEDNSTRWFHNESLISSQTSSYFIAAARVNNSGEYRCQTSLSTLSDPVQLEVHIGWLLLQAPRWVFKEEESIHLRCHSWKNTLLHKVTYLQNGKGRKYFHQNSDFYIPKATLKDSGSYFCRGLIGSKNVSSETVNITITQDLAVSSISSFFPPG

T2: human FcγRIIaH extracellular domain with C-terminal His-tag (human, UniProt P12318 34-217)
T2 construct: also called human FcgRIIaH; FcγRIIa (type H)
T2 sequence: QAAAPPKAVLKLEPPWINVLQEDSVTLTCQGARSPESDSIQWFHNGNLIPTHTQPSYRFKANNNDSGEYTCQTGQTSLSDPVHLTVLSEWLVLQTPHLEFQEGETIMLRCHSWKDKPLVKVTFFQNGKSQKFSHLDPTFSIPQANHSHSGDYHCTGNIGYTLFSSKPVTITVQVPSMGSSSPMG

T3: human FcγRIIb extracellular domain with C-terminal His-tag (human, UniProt P31994 43-217)
T3 construct: also called human FcgRIIb
T3 sequence: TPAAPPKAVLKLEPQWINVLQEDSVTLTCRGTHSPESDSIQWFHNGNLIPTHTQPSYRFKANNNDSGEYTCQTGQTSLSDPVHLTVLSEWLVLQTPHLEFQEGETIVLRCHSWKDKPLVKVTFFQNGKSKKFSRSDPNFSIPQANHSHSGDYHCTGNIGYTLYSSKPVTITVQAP

T4: human FcγRIIb extracellular domain with C-terminal His-tag (human, UniProt P31994 43-217)
T4 construct: also called human FcgRIIb; not shown: His-tag added to the C-terminus
T4 sequence: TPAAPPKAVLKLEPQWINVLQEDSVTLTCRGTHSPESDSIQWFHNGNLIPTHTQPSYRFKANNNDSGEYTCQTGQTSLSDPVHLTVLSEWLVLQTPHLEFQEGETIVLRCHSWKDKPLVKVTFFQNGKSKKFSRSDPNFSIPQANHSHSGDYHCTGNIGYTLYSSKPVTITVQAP

T5: cynomolgus monkey FcγRIIb extracellular domain with C-terminal His-tag (cynomolgus monkey)
T5 construct: also called cyno FcgRIIb; cynoFcγRIIb; not shown: His-tag added to the C-terminus
T5 chain: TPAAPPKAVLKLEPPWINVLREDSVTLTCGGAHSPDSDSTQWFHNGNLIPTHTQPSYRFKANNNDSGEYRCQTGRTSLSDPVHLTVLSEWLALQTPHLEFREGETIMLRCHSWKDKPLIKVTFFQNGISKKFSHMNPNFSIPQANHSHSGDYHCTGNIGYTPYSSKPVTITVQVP

T6: cynomolgus monkey FcγRIIa3 extracellular domain with C-terminal His-tag (cynomolgus monkey)
T6 construct: also called cyno FcgRIIa3; cynoFcγRIIa3; not shown: His-tag added to the C-terminus
T6 chain: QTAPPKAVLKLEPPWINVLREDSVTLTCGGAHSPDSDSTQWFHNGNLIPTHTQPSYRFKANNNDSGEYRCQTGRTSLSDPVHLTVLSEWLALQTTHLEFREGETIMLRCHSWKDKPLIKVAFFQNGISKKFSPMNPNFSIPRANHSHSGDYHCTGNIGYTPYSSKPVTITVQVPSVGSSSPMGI

T7: human FcγRIIaR extracellular domain with C-terminal His-tag (human, UniProt P12318 34-217)
T7 construct: also called human FcgRIIaR; FcγRIIa type R; not shown: His-tag added to the C-terminus
T7 chain: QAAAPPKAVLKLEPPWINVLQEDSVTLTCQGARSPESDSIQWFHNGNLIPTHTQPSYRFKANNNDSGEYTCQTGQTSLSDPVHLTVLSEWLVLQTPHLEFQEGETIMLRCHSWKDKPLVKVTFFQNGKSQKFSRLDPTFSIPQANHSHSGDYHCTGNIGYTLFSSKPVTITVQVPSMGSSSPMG


Key:
[1] = molecular target: T1, cynomolgus monkey FcγRIIIaS …; test: SPR, KD(parent SG1)/KD(variant)
[2] = molecular target: T2, human FcγRIIaH extracellular domain …; test: SPR, KD(parent SG1)/KD(variant)
[3] = molecular target: T3, human FcγRIIb extracellular domain with …; test: SPR, KD(parent SG1)/KD(variant)
[4] = molecular target: T4, human FcγRIIb extracellular domain with …; test: SPR (BIACORE), antibody captured, FcgR analyte
[5] = molecular target: T5, cynomolgus monkey FcγRIIb extracellular …; test: SPR (BIACORE), antibody captured, FcgR analyte
[6] = molecular target: T8, cynomolgus monkey FcγRIIIaS extracellular domain with C-terminal His-tag (cynomolgus monkey, UniProt A3RFZ7 21-206 (rhesus entry)); test: SPR (BIACORE), antibody captured, FcgR analyte
T8 construct: also called cyno FcgRIIIaS; cynoFcγRIIIaS; not shown: His-tag added to the C-terminus

[7] = molecular target: T6, cynomolgus monkey FcγRIIa3 …; test: SPR (BIACORE), antibody captured, FcgR analyte
[8] = molecular target: T9, human FcγRIIIaV extracellular domain with C-terminal His-tag (human, UniProt P08637 17-208); test: SPR (BIACORE), antibody captured, FcgR analyte
T9 construct: also called human FcgRIIIaV; not shown: His-tag added to the C-terminus

[9] = molecular target: T7, human FcγRIIaR extracellular domain …; test: SPR (BIACORE), antibody captured, FcgR analyte

T9 sequence (P08637 17-208 F176V): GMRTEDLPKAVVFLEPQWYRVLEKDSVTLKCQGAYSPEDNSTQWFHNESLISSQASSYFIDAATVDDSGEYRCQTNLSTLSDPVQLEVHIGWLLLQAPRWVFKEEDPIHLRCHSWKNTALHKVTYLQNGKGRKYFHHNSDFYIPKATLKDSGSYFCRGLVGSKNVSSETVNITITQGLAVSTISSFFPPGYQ

Binder	KD fold (SG1 = 1) [1] [fold]	KD fold (SG1 = 1) [2] [fold]	KD fold (SG1 = 1) [3] [fold]	Kd [4] [nM]	Kd [5] [nM]	Kd [6] [nM]	Kd [7] [nM]	Kd [8] [nM]	Kd [9] [nM]
MS1032LO06-SG1033 (antibody, human IgG1, kappa, name in EU numbering, tied to rows r11/r29 by row order only; also called MS103205H795-SG1033; copies: 2 + 2) heavy: QVTLKESGPVLVKPTETLTLTCTVSGIDLSHDDISWVRQAPGKGLEWVGIISYAGSTYYASWAKGRLTISKDTSKNQVVLTMTNMDPVDTATYYCARGVPAYSHGGDLWGQGTLVTVSSASTKGPSVFPLAPSSKSTSGGTAALGCLVKDYFPEPVTVSWNSGALTSGVHTFPAVLQSSGLYSLSSVVTVPSSSLGTQTYICNVNHKPSNTKVDKKVEPKSCDKTHTCPPCPAPELLNGPSVFLFPPKPKDTLMISRTPEVTCVVVDVSDEDPEVKFNWYVDGVEVHNAKTKPREEQYNSTYRVVSVLTVLHQDWLNGKEYKCKVSNKALPKPIEKTISKAKGQPREPQVYTLPPSREEMTKNQVSLTCLVKGFYPSDIAVEWESNGQPENNYKTTPPVLDSDGSFFLYSKLTVDKSRWQQGNVFSCSVMHEALHAHYTQKSLSLSP light: DIVMTQSPATLSLSPGERATLSCTSSQSVYHANWLSWFQQKPGQPPKLLIYWASTLAYGVPSRFSGSGSGTDFTLTISSLQPEDAATYYCAGGYGGGRYAFGQGTKVEIKRTVAAPSVFIFPPSDEQLKSGTASVVCLLNNFYPREAKVQWKVDNALQSGNSQESVTEQDSKDSTYSLSSTLTLSKADYEKHKVYACEVTHQGLSSPVTKSFNRGEC	0.06	0.5	1						
M103205H795-MY288/M103202L889-SK1 (antibody, human IgG1, kappa, name in EU numbering, Fc variant of MS1032LO06-SG1; positions in EU numbering) heavy: not shown light: DIVMTQSPATLSLSPGERATLSCTSSQSVYHANWLSWFQQKPGQPPKLLIYWASTLAYGVPSRFSGSGSGTDFTLTISSLQPEDAATYYCAGGYGGGRYAFGQGTKVEIKRTVAAPSVFIFPPSDEQLKSGTASVVCLLNNFYPREAKVQWKVDNALQSGNSQESVTEQDSKDSTYSLSSTLTLSKADYEKHKVYACEVTHQGLSSPVTKSFNRGEC				5100	1200	1.3			
M103205H795-MY210/M103202L889-SK1 (antibody, human IgG1, kappa, name in EU numbering, Fc variant of MS1032LO06-SG1; positions in EU numbering) heavy: QVTLKESGPVLVKPTETLTLTCTVSGIDLSHDDISWVRQAPGKGLEWVGIISYAGSTYYASWAKGRLTISKDTSKNQVVLTMTNMDPVDTATYYCARGVPAYSHGGDLWGQGTLVTVSSASTKGPSVFPLAPSSKSTSGGTAALGCLVKDYFPEPVTVSWNSGALTSGVHTFPAVLQSSGLYSLSSVVTVPSSSLGTQTYICNVNHKPSNTKVDKKVEPKSCDKTHTCPPCPAPELLNGPSVFLFPPKPKDTLMISRTPEVTCVVVDVSDEDPEVKFNWYVDGVEVHNAKTKPREEQYNSTYRVVSVLTVLHQDWLNGKEYKCKVSNTALPKPIEKTISKAKGQPREPQVYTLPPSREEMTKNQVSLTCLVKGFYPSDIAVEWESNGQPENNYKTTPPVLDSDGSFFLYSKLTVDKSRWQQGNVFSCSVMHEALHNHYTQKSLSLSP light: DIVMTQSPATLSLSPGERATLSCTSSQSVYHANWLSWFQQKPGQPPKLLIYWASTLAYGVPSRFSGSGSGTDFTLTISSLQPEDAATYYCAGGYGGGRYAFGQGTKVEIKRTVAAPSVFIFPPSDEQLKSGTASVVCLLNNFYPREAKVQWKVDNALQSGNSQESVTEQDSKDSTYSLSSTLTLSKADYEKHKVYACEVTHQGLSSPVTKSFNRGEC					280	2400	2300	31000	1400
M103205H795-MY212/M103202L889-SK1 (antibody, human IgG1, kappa, name in EU numbering, Fc variant of MS1032LO06-SG1; positions in EU numbering) heavy: QVTLKESGPVLVKPTETLTLTCTVSGIDLSHDDISWVRQAPGKGLEWVGIISYAGSTYYASWAKGRLTISKDTSKNQVVLTMTNMDPVDTATYYCARGVPAYSHGGDLWGQGTLVTVSSASTKGPSVFPLAPSSKSTSGGTAALGCLVKDYFPEPVTVSWNSGALTSGVHTFPAVLQSSGLYSLSSVVTVPSSSLGTQTYICNVNHKPSNTKVDKKVEPKSCDKTHTCPPCPAPELLNGPVVFLFPPKPKDTLMISRTPEVTCVVVDVSDEDPEVKFNWYVDGVEVHNAKTKPREELYNSTYRVVSVLTVLHQDWLNGKEYKCKVSNTALPKPIEKTISKAKGQPREPQVYTLPPSREEMTKNQVSLTCLVKGFYPSDIAVEWESNGQPENNYKTTPPVLDSDGSFFLYSKLTVDKSRWQQGNVFSCSVMHEALHNHYTQKSLSLSP light: DIVMTQSPATLSLSPGERATLSCTSSQSVYHANWLSWFQQKPGQPPKLLIYWASTLAYGVPSRFSGSGSGTDFTLTISSLQPEDAATYYCAGGYGGGRYAFGQGTKVEIKRTVAAPSVFIFPPSDEQLKSGTASVVCLLNNFYPREAKVQWKVDNALQSGNSQESVTEQDSKDSTYSLSSTLTLSKADYEKHKVYACEVTHQGLSSPVTKSFNRGEC					570	2600	2900		
MS1032LO19-SG1080 (antibody, name in EU numbering, tied to rows r18/r36 by row order only; also called MS103240H795-SG1080) heavy: QVQLVESGGGLVQPGGSLRLSCAVSGIDLSHDDISWVRQAPGKGLEWVSIISYAGSTYYASWAKGRLTISKDTSKNQVVLTMTNMDPVDTATYYCARGVPAYSHGGDLWGQGTLVTVSSASTKGPSVFPLAPSSKSTSGGTAALGCLVKDYFPEPVTVSWNSGALTSGVHTFPAVLQSSGLYSLSSVVTVPSSSLGTQTYICNVNHKPSNTKVDKKVEPKSCDKTHTCPPCPAPELLNGPSVFLFPPKPKDTLMISRTPEVTCVVVDVSDEDPEVKFNWYVDGVEVHNAKTKPREELYNSTYRVVSVLTVLHRDWLNGKEYKCKVSNTALPKPIEKTISKAKGQRREPQVYTLPPSREEMTKNQVSLTCLVKGFYPSDIAVEWESNGQPENNYKTTPPVLDSDGSFFLYSKLTVDKSRWQQGNVFSCSVMHEALHAHYTRKELSLSP light: DIVMTQSPATLSLSPGERATLSCTTSQSVYHENWLSWFQQKPGQPPKLLIYWASTLAYGVPSRFSGSGSGTDFTLTISSLQPEDAATYYCAGGYGGGRYAFGQGTKVEIKRTVAAPSVFIFPPSDEQLKSGTASVVCLLNNFYPREAKVQWKVDNALQSGNSQESVTEQDSKDSTYSLSSTLTLSKADYEKHKVYACEVTHQGLSSPVTKSFNRGEC	0.18	2.5							
MS1032LO06-SG1034 (antibody, human IgG1, kappa, name in EU numbering, tied to rows r12/r30 by row order only; also called MS103205H795-SG1034; copies: 2 + 2) heavy: QVTLKESGPVLVKPTETLTLTCTVSGIDLSHDDISWVRQAPGKGLEWVGIISYAGSTYYASWAKGRLTISKDTSKNQVVLTMTNMDPVDTATYYCARGVPAYSHGGDLWGQGTLVTVSSASTKGPSVFPLAPSSKSTSGGTAALGCLVKDYFPEPVTVSWNSGALTSGVHTFPAVLQSSGLYSLSSVVTVPSSSLGTQTYICNVNHKPSNTKVDKKVEPKSCDKTHTCPPCPAPELLTGPSVFLFPPKPKDTLMISRTPEVTCVVVDVSDEDPEVKFNWYVDGVEVHNAKTKPREEQYNSTYRVVSVLTVLHRDWLNGKEYKCKVSNKALPKPIEKTISKAKGQPREPQVYTLPPSREEMTKNQVSLTCLVKGFYPSDIAVEWESNGQPENNYKTTPPVLDSDGSFFLYSKLTVKKSRWQQGNVFSCSVMHEALHAHYTQKSLSLSP light: DIVMTQSPATLSLSPGERATLSCTSSQSVYHANWLSWFQQKPGQPPKLLIYWASTLAYGVPSRFSGSGSGTDFTLTISSLQPEDAATYYCAGGYGGGRYAFGQGTKVEIKRTVAAPSVFIFPPSDEQLKSGTASVVCLLNNFYPREAKVQWKVDNALQSGNSQESVTEQDSKDSTYSLSSTLTLSKADYEKHKVYACEVTHQGLSSPVTKSFNRGEC	0.11	2.7	1						
